From publication PMC10397247
Blank lines part the entries; values can stand above or below the binder they belong to.

How the values were obtained:
[1] = target: T1, 4H3907-bA; assay: two-hybrid library CCNG1;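 further: natural log of median RNA to DNA barcode read ratio; higher means stronger binding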
T1 chain: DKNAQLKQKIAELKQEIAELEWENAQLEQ

[2] = target: T2, 4H470-bA; assay: two-hybrid library CCNG1;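 further: natural log of median RNA to DNA barcode read ratio; higher means stronger binding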
T2 chain: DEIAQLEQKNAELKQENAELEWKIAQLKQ

[3] = target: T3, 4H344-bA; assay: two-hybrid library CCNG1;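 further: natural log of median RNA to DNA barcode read ratio; higher means stronger binding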
T3 chain: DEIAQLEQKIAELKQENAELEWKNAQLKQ

[4] = target: T4, 4H363-bA; assay: two-hybrid library CCNG1;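 further: natural log of median RNA to DNA barcode read ratio; higher means stronger binding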
T4 chain: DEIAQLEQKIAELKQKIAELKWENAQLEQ

[5] = target: T5, 4H3961-bA; assay: two-hybrid library CCNG1
T5 chain: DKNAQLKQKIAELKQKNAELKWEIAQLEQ

[6] = target: T6, APC3265-AA; assay: two-hybrid library CCmax
T6 chain: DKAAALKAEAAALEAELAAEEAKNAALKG

[7] = target: T7, APC4100-AA; assay: two-hybrid library CCmax; details: mean of both orientations
T7 chain: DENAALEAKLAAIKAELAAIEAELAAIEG

[8] = target: T8, APC9806-AA; assay: two-hybrid library CCmax; details: mean of both orientations
T8 chain: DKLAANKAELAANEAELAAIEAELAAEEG

[9] = target: T9, APC6088-AA; assay: two-hybrid library CCmax; details: mean of both orientations
T9 chain: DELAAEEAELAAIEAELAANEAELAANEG

[10] = target: T10, APC9141-AA; assay: two-hybrid library CCmax; details: mean of both orientations
T10 chain: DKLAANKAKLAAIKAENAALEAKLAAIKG

[11] = target: T11, APC2811-AA; assay: two-hybrid library CCmax; details: mean of both orientations
T11 chain: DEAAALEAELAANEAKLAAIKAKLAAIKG

[12] = target: T12, APC2375-AA; assay: two-hybrid library CCmax; details: mean of both orientations
T12 chain: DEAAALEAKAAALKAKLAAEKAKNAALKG

[13] = target: T13, APC4336-AA; assay: two-hybrid library CCmax; details: mean of both orientations
T13 chain: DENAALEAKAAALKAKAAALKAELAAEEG

[14] = target: T14, APC2474-AA; assay: two-hybrid library CCmax; details: mean of both orientations
T14 chain: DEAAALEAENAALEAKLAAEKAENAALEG

[15] = target: T15, APC2257-AA; assay: two-hybrid library CCmax
T15 chain: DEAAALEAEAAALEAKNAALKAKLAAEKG

[16] = target: T16, APC3881-AA; assay: two-hybrid library CCmax; details: mean of both orientations
T16 chain: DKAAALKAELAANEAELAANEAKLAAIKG

[17] = target: T17, APC5531-AA; assay: two-hybrid library CCmax; details: mean of both orientations
T17 chain: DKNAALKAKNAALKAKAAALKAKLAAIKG

[18] = target: T18, APC8401-AA; assay: two-hybrid library CCmax; details: mean of both orientations
T18 chain: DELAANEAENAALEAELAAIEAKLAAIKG

[19] = target: T19, APC3354-AA; assay: two-hybrid library CCmax; details: mean of both orientations
T19 chain: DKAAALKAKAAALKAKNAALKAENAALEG

[20] = target: T20, APC2556-AA; assay: two-hybrid library CCmax; details: mean of both orientations
T20 chain: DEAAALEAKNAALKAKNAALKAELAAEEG

[21] = target: T21, APC3323-AA; assay: two-hybrid library CCmax; details: mean of both orientations
T21 chain: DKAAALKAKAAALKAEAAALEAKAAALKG

[22] = target: T22, APC2543-AA; assay: two-hybrid library CCmax; details: mean of both orientations
T22 chain: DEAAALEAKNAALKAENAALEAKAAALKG

[23] = target: T23, APC8516-AA; assay: two-hybrid library CCmax; details: mean of both orientations
T23 chain: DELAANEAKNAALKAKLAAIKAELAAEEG

[24] = target: T24, APC2724-AA; assay: two-hybrid library CCmax; details: mean of both orientations
T24 chain: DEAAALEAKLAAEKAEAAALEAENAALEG

[25] = target: T25, APC7524-AA; assay: two-hybrid library CCmax; details: mean of both orientations
T25 chain: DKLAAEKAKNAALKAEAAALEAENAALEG

[26] = target: T26, APC9291-AA; assay: two-hybrid library CCmax; details: mean of both orientations
T26 chain: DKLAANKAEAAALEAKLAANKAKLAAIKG

[27] = target: T27, APC9182-AA; assay: two-hybrid library CCmax; details: mean of both orientations
T27 chain: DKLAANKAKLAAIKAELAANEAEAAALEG

[28] = target: T28, APC2981-AA; assay: two-hybrid library CCmax; details: mean of both orientations
T28 chain: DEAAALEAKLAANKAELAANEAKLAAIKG

[29] = target: T29, APC542-AA; assay: two-hybrid library CCmax; details: mean of both orientations
T29 chain: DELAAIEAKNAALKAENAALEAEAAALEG

[30] = target: T30, APC5009-AA; assay: two-hybrid library CCmax; details: mean of both orientations
T30 chain: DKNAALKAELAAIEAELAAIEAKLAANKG

- interaction score [1]: 0.155
- interaction score [2]: 0.691
- interaction score [3]: -0.268
- interaction score [4]: -0.443
- interaction score [5]: 1.48
Binder: DEIAQLEQKIAELKQENAELEWKNAQLKQ [4H344-bA]

- interaction score [6]: -1.43
- interaction score [7]: -1.56
- interaction score [8]: -1.79
- interaction score [9]: -1.24
- interaction score [10]: -1.37
- interaction score [11]: 1.49
- interaction score [12]: -1.42
- interaction score [13]: -1.71
- interaction score [14]: -1.46
- interaction score [15]: -1.12
- interaction score [16]: -1.31
- interaction score [17]: -1.97
- interaction score [18]: -1.32
- interaction score [19]: -1.45
- interaction score [20]: -1.99
- interaction score [21]: -1.58
- interaction score [22]: -1.02
- interaction score [23]: -1.64
- interaction score [24]: -1.47
- interaction score [25]: -1.59
- interaction score [26]: -1.61
- interaction score [27]: -1.86
- interaction score [28]: -1.18
- interaction score [29]: -1.54
- interaction score [30]: -1.07
Binder: DEAAALEAEAAALEAKNAALKAKLAAEKG [APC2257-AA]
